Data on 4 molecules can be found in patent publication EP2649983A1 (Lipotec, S.A., dated 2013).

B1: Ac-SEQ ID NO:14-NH2 (peptide)
peptide: Ac-EDLKRWM-NH2
B2: Ac-SEQ ID NO:25-NH2 (peptide)
peptide: Ac-DHFLDWM-NH2
B3: Ac-SEQ ID NO:1-NH2 (peptide)
peptide: Ac-EHLKQWM-NH2
B4: Ac-SEQ ID NO:24-NH2 (peptide)
peptide: Ac-DHFQQRM-NH2

The target of this assay is SNARE complex in cells of a human neuroblastoma cell line (human, UniProt P60880 1-206). Description: cell-based or functional assay.
SNARE complex in cells of a human neuroblastoma cell line, sequence (P60880 whole entry, one chain of several): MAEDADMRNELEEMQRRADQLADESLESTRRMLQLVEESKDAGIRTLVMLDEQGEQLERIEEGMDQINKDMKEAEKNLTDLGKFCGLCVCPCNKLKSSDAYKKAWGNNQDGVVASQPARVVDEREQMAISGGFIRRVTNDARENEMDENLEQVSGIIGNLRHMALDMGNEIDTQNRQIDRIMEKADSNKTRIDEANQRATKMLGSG
Regarding B1, the “% RELEASED NO… (Average), dose 10 µM” value worked out at 85%; the “% RELEASED NO… (Average), dose 100 µM” value is 86%; the “% RELEASED NO… (Average), dose 1000 µM” value turned out to be 45.8%.
Regarding B2, the “% RELEASED NO… (Average), dose 1 µM” value worked out at 99.6%; the “% RELEASED NO… (Average), dose 10 µM” value amounted to 94.5%; the “% RELEASED NO… (Average), dose 100 µM” value came to 74.8%; the “% RELEASED NO… (Average), dose 500 µM” value worked out at 48.1%. For the same molecule, the “% RELEASED NO… (Average), dose 1000 µM” value was 41%.
Taken in the same sequence, the figures for B3 were 96.1%, 93.1%, 79.6%, 49.1% and 42.5%.
Taken in the same sequence, the figures for B4 were 90.6%, 97.1%, 89%, 78.1% and 67.9%.
